The values below come from patent US20220306734A1 (H LUNDBECK A S, published 2022).

Positions count from the first letter of the chain named. Some results are limits rather than exact numbers.

First the molecules themselves.
B1: mGluR5 Ab3 (antibody, V domains shown)
VH: QSLEESGGRLVTPGTPLTLTCTVSGIDLSSYAVGWVRQAPGKGLEYIGIIYASGNTWYASWVKGRFTISKTSTTVDLKLASLTTEDTATYFCARGHGATYDYFNLWGPGTLVTVSS
VL: AYDMTQTPASVEVAVGGTVTIKCQASQSISSYLAWYQQKPGQPPKLLIYDASDLASGVPSRFKGSGSGTEYTLTISGVQCDDAATYYCQQGLATANVDNVFGGGTEVVVKR
notes: Rabbit variable regions on human heavy and light chain constant regions (chimeric)
B2: mGluR5 Ab16 (antibody, V domains shown)
VH: QSVEESGGRLVTPGTPLTLTCTASGFTISSYSMIWVRQAPGKGLESIGWINTGGSAYYANWAKGRFTISRTSTTVDLKMTSLTTEDTATYFCARDNNWSFNLWGQGTLVTVSS
VL: DIVMTQTPSSVSAAVGGTVTIKCQASQSIGTNLAWYQQKSGQPPKRLTYRASNLESGVPSRFKGSGSGTEFTLTISDLECADAATYYCQGGYYREGNSPTYPFGGGTEVVVKR
notes: as for B1
B3: mGluR5 Ab20 (antibody, V domains shown)
VH: QSVEESGGRLVTPGTPLTLTCTVSGFSLSDYGLNWVRQAPGKGLEWIGIIYASGSTYYANWAKGRFTISKTSTTVDLKMTSPTTEDTATYFCVRDSSATYDYFNLWGPGTLVTVSS
VL: YDMTQTPASVEVAVGGTVTIKCQASQSISSYLAWYQQKPGQPPRLLIYGASNLASGVPSRFKGSGSGTEYTLTISDLECADAATYYCQQALSPSNVDNAFGGGTEVVVKR
B4: mGluR5 Ab1 (antibody, V domains shown)
VH: QQQLEESGGGLVKPGGTLTLTCKVSGIDFSSYYYMCWVRQAPGKGLEWIACIYAGDGGTYYASWAKGRFTSSKTSSTTVTLQMTSLTAADTATYFCARGSGVGSYGYSLWGPGTLVTVSS
VL: DIVMTQTPASVEAAVGGTVTIKCQASESIYSNLAWYQQKPGQPPKLLIYRASNLESGVPSRFKGSGSGTEFTLTISDLECADAATYYCQGYYASTTTNAFGGGTEVVVKR
notes: as for B1
B5: mGluR5 Ab15 (antibody, V domains shown)
VH: QQLVESGGGLVKPGGTLTLTCKGSGIDFNDYYYICWVRQAPGKGLEWILCIYNGDGETYYANWAKGRFTISKTSSTTVTLQMTSLTGADTATYFCARGSGVGSYGYNFWGQGTLVTVSS
VL: B4 VL with S28N, E55A, T96V, A99G
notes: as for B1
B6: mGluR5 Ab23 (antibody, V domains shown)
VH: B4 VH with V24A, S30N, S31D, L46P, A54N, G58D, S63N, S71I, S108N, P112Q
VL: B4 VL with N53T, E55A, T96I, A99V
B7: mGluR5 Ab14 (antibody, V domains shown)
VH: B4 VH with V24G, S30N, S31D, A54N, G58E, S63N, S71I, S108N, L109F, P112Q
VL: B4 VL with E55A, T96V
notes: as for B1
B8: mGluR5 Ab18 (antibody, V domains shown)
VH: QQQLEESGGGLVKPGGTLTLTCKASGLDFSNYHYMCWVRQAPGKRPEWIACIYNGDGTTYDASWAKGRFTSSKTSSTTVTLQMTSLTAADTATYFCARGSGVGSYGYNLWGQGTLVTVSS
VL: B4 VL with N53T, T95I, T96I
notes: as for B1
B9: mGluR5 Ab17 (antibody, V domains shown)
VH: B4 VH with Q2R, T17A, V24A, M35I, G58T, S63T, K66E, S108N, P112Q
VL: B4 VL with S28Y, N53T, Y92F, A93P, T95I, T96I
notes: as for B1
B10: mGluR5 Ab19 (antibody, V domains shown)
VH: QEQLEESGGDLVKPEGSLTLTCTASGFSFSNYYYMCWVRQAPGKGLEWIACIYTSSGSTYYANWVNGRFTISRSTSLNTVTLQVTSLTAADTATYFCAKSFGVGGYSFNLWGQGTLVTVSS
VL: AYDMTQTPASVEVAVGGTVTIKCQASQSISSYLSWYQQKPGQRPKLLIYRASTLASGVSSRFKGSGSGTEYSLSISGMECDDAATYYCQQGTTISDVDNVFGGGTEVVVKR
notes: as for B1
B11: mGluR5 Ab8 (antibody, V domains shown)
VH: QSVEESGGRLVTPGTPLTLTCSVSGIDLSSYAMSWVRQAPGKGLEWIGVIYASGSTYYASWAKGRFTISKTSTTVDLKITSPTTGDTATYFCVRDTTATYNYFNLWGQGTLVTVSS
VL: AYDMTQTPASVEVAVGGTATIKCQASQSIYNYLAWYQQKPGQPPKLLIYEASTLASGVPSRFKGSGSGTEFTLTISDLECADAATYYCQQSLSPSNVGRRVFGGGTEVVVKR
notes: as for B1
B12: mGluR5 Ab13 (antibody, V domains shown)
VH: QSLEESGGDLVKPGASLTLTCTASGFSFSSSDYMCWVRQAPGKGLEWIGCIYTGDGTTYYASWAKGRFTISKTSSTTVTLQMTSLTAADTATYFCARGAGVGSYGYNLWGPGTLVTVSS
VL: DIVMTQTPASVEAAVGDTVTINCQASQNIYSNLAWYQQKPGQPPKLLIYRASTLASGVPSRFKGSGSGTQFTLTISDLECADAATYYCQSYYASSISNYFGGGTEVVVKR
notes: as for B1
B13: mGluR5 Ab21 (antibody, V domains shown)
VH: QSLEESGGGLVQPGASLTLTCTASGFSFSSNYWICWVRQAPGKGLEWIGCIYTGTGITWYASWVNGRVTISSTSSTTVTLQVNSLTAADTATYFCARGSGDIAWAWDLWGQGTLVTVSS
VL: DVVMTQTPASVSAAVGGTVTIKCQASQSIYTNLAWYQQKPGQPPKLLIYKASTLASGVSSRFKGSGSGTEFTLTISGVQCADAATYYCQCTGYGSSGWTFGGGTEVVVKR
notes: as for B1

T1 sequence (P31424 other isoform, or with tags, fused parts or gaps limits assumed, form in doubt): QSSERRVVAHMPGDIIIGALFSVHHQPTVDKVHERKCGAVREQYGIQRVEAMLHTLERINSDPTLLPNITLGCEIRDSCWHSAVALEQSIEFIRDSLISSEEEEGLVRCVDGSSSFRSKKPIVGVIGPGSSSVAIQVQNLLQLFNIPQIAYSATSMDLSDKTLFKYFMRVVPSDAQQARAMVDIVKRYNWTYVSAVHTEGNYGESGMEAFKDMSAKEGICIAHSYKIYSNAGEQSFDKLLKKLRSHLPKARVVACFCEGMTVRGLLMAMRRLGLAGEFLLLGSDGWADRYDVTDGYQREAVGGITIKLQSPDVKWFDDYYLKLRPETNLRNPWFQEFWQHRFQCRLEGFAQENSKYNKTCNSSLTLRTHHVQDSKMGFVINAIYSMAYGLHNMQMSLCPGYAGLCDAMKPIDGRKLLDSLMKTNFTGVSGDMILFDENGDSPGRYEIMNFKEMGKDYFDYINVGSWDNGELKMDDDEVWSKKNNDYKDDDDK

In one experiment the target is full-length (FL) human mGluR5 on BA/F3-mGluR5 clone 10C9 cells (human) (UniProt P41594). As to the kind of experiment: cell-based or functional assay.
B1 displayed a pERK Assay Inhibition IC50-nM of 3.91 nM.

Molecule B2 had a pERK Assay Inhibition IC50-nM of 0.17 nM.

B3 displayed a pERK Assay Inhibition IC50-nM of 2.36 nM.

The molecule B4 returned a pERK Assay Inhibition IC50-nM of 0.14 nM.

As for B5, the pERK Assay Inhibition IC50-nM was found to be 0.18 nM.

B6 showed a pERK Assay Inhibition IC50-nM of 0.14 nM.

As to B7, the pERK Assay Inhibition IC50-nM worked out at 0.15 nM.

B8 showed a pERK Assay Inhibition IC50-nM of 0.15 nM.

In turn, B9 showed a pERK Assay Inhibition IC50-nM of 0.15 nM.

B10 gave a pERK Assay Inhibition IC50-nM of 1.07 nM.

For the molecule B11, the pERK Assay Inhibition IC50-nM came out at 2.29 nM.

Regarding B12, the pERK Assay Inhibition IC50-nM turned out to be 0.22 nM.

In turn, B13 registered a pERK Assay Inhibition IC50-nM of 1.41 nM.

The next experiment has as its target T1, rat mGluR5 extracellular domain (rat-mGluR5-ECD) (rat, UniProt P31424 21-504).
T1 construct: ECD construct made 'in a similar fashion' to the human one
The experiment in a line: HTRF, soluble ECD. How it is done: (§1) Binding of antibodies to mGluR5/mGluRJ measured via Homogeneous Time-Resolved Fluorescence (HTRF). Binding assays were performed using HTRF reagents from CisBio. Ten microliters of an antibody dilution series (highest final concentration of 30 nM) was incubated with 10 μl of mGluR-ECD (10 nM final concentration) in HTRF buffer (50 mM Phosphate buffer pH7, 0.8M KF (potassium fluoride), 0.2% BSA). Twenty microliters of Europium-labeled anti-hu-Fc donor (2 nM final concentration, CisBio Catalog No. 61HFCKLB) and 20 μl of XL665-labeled anti-Flag acceptor (60 nM final concentration, CisBio Catalog No. 61FG2XLB) were added to each well and incubated for 1 hour at room temperature. Alternatively, the antibody dilution series was incubated with 10 μl of biotinylated mGluR-ECD (10 nM final concentration), and 20 μl of Europium-labeled anti-hu-Fc donor (2 nM final concentration) and 20 μl of d2-labeled streptavidin acceptor (60 nM final concentration, CisBio Catalog No. 610SADLB) were added to each well. Fluorescence was measured at 620 and 665 nm with a delay of 300 μsec. Results were expressed as the ratio of signal at 665 nm over 620 nm. EC₅₀ values were calculated for binding of Ab1-Ab23 to human-mGluR5-ECD, of Ab1-Ab21 to rat-mGluR5-ECD, and of Ab1, Ab2 and Ab4-Ab12 to monkey-mGluR5-ECD and to human-mGluR1-ECD (TABLE 1).
For orientation: EC50 means the concentration that produces a half-maximal response. The molecule B1 yielded an EC50 of 0.487 nM.

In turn, B2 came in with an EC50 of 0.427 nM.

B4: the EC50 stood at 0.497 nM.

On to B5, for which a half-maximal effect (EC50) was put at 0.448 nM.

Molecule B7 gave an EC50 of 0.308 nM.

Turning to B8, the EC50 stood at 0.395 nM.

Molecule B9 gave an EC50 of 0.305 nM.

B10: the midpoint of the response, the EC50, lay at 0.327 nM.

Regarding B12, the EC50 amounted to 0.283 nM.

As for B13, a half-maximal response (EC50) required 0.229 nM.

The target in another experiment is T2, human mGluR1 extracellular domain (human-mGluR1-ECD) (human, UniProt Q13255 19-592, limits assumed).
T2 construct: ECD construct made 'in a similar fashion' to the human mGluR5 one; also called hu-mGluR1
T2 sequence (Q13255 other isoform, or with tags, fused parts or gaps limits assumed): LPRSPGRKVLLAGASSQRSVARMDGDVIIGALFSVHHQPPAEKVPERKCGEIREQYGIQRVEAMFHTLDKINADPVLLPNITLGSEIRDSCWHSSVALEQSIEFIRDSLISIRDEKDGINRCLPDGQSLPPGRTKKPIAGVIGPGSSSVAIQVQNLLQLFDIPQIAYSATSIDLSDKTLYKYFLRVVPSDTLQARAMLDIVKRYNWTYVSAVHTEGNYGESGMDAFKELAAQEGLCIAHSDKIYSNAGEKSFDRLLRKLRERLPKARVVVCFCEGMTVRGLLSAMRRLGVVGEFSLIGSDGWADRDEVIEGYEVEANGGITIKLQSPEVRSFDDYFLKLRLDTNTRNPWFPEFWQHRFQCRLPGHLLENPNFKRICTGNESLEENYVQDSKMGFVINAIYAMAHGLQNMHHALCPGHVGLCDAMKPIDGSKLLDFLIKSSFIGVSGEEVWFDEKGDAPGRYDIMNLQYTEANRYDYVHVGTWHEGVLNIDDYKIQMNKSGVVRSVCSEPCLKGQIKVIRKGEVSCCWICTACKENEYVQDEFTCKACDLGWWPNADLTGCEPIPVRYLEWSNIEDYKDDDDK
As to the kind of experiment: HTRF, soluble ECD. How it is done: as §1
Turning to B4, the binding result is given as “no binding”.

On to B11, for which the binding result is on record as “no binding”.

The next experiment deals with T3, cynomolgus monkey mGluR5 extracellular domain (monkey-mGluR5-ECD) (cynomolgus monkey, UniProt P41594 21-580 (human entry), limits assumed).
T3 construct: ECD construct made 'in a similar fashion' to the human one; also called cyno-mGluR5
T3 sequence (P41594 other isoform, or with tags, fused parts or gaps limits assumed): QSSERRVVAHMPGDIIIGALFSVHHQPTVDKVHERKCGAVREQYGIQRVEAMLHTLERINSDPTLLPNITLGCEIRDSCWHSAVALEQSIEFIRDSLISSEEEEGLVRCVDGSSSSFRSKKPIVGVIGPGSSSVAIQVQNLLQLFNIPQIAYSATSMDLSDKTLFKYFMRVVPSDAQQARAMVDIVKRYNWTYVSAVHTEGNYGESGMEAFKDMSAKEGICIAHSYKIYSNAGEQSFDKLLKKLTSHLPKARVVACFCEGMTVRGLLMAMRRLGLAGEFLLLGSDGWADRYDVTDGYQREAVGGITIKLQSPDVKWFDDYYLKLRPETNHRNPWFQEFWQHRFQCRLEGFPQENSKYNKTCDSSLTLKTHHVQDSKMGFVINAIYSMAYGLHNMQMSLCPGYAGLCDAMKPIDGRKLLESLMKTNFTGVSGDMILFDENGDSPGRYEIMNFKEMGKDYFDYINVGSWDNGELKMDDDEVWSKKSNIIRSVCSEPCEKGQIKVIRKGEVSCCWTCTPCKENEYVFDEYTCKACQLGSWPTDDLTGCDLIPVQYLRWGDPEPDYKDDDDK
The experiment in a line: HTRF, soluble ECD. How it is done:
as §1
On the technique in general: In TR-FRET formats the signal depends on donor and acceptor labels being close together.
Molecule B4 returned an EC50 of 0.371 nM.

B11: the concentration giving a half-maximal response (EC50) is 0.322 nM.

In another experiment the target is human mGluR5 extracellular domain (human-mGluR5-ECD) (human) (UniProt P41594). As to the kind of experiment: HTRF, soluble ECD.
human mGluR5 extracellular domain (human-mGluR5-ECD) (human), sequence (P41594 other isoform, or with tags, fused parts or gaps): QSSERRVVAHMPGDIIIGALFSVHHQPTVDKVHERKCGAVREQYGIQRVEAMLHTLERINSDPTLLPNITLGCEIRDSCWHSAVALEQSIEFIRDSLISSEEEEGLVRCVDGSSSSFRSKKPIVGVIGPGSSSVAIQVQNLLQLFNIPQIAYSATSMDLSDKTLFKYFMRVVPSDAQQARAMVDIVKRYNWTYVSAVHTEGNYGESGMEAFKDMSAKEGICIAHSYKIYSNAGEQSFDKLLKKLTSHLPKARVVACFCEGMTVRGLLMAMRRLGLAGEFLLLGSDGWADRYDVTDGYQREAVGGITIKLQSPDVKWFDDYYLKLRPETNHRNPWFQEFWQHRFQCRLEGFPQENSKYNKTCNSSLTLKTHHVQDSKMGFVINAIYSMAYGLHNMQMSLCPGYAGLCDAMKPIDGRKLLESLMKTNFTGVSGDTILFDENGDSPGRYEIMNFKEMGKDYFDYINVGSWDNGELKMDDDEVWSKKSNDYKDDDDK
Molecule B1 had an EC50 below 2 nM.

B2 had an EC50 below 2 nM.

In turn, B3 had an EC50 below 2 nM.

For the molecule B4, the EC50 was below 2 nM.

B5 came in with an EC50 below 2 nM.

B6 had an EC50 below 2 nM.

B7 displayed a concentration for a half-maximal effect (EC50) below 2 nM.

Regarding B8, the EC50 is below 2 nM.

Molecule B9 returned an EC50 below 2 nM.

B10 showed an EC50 below 2 nM.

For B11, the EC50 was below 2 nM.

For B12, the EC50 is below 2 nM.

Turning to B13, the EC50 is below 2 nM.

For the next experiment the target is unchanged. The experiment in a line: HTRF, soluble ECD. This is another data set of the same source.
In the case of B1, the EC50 turned out to be 0.536 nM.

As for B2, the EC50 came to 0.439 nM.

B3 displayed an EC50 of 0.364 nM.

B4 gave an EC50 of 0.269 nM.

On to B5, for which the EC50 is 0.506 nM.

On to B6, for which the EC50 was 0.367 nM.

Molecule B7 registered an EC50 of 0.371 nM.

In turn, B8 came in with an EC50 of 0.491 nM.

Molecule B9 registered an EC50 of 0.312 nM.

B10 showed an EC50 of 0.453 nM.

As to B11, the EC50 is 0.748 nM.

Take B12: the EC50 amounted to 0.183 nM.

In the case of B13, the EC50 was determined as 0.684 nM.

In a further experiment the target is full-length (FL) human mGluR5 on BA/F3-mGluR5 clone 10C9 cells (human) (UniProt P41594). The experiment in a line: flow cytometry, BA/F3-mGluR5 10C9 cells, 10 ug/ml antibody. For orientation: Flow cytometry measures light scatter and fluorescence of single cells or particles in a stream.
Molecule B1 yielded a mGluR5 (FL) cell binding-fold over background of 31.1 fold.

For the molecule B2, the mGluR5 (FL) cell binding-fold over background turned out to be 40 fold.

B3 yielded a mGluR5 (FL) cell binding-fold over background of 26.1 fold.

The molecule B4 yielded a mGluR5 (FL) cell binding-fold over background of 40.8 fold.

In the case of B5, the mGluR5 (FL) cell binding-fold over background turned out to be 41.3 fold.

On to B6, for which the mGluR5 (FL) cell binding-fold over background turned out to be 37.9 fold.

In turn, B7 had a mGluR5 (FL) cell binding-fold over background of 40.6 fold.

The molecule B8 returned a mGluR5 (FL) cell binding-fold over background of 39.6 fold.

With B9, the mGluR5 (FL) cell binding-fold over background was 40.4 fold.

Molecule B10 yielded a mGluR5 (FL) cell binding-fold over background of 38.3 fold.

For the molecule B11, the mGluR5 (FL) cell binding-fold over background came to 32.1 fold.

In turn, B12 returned a mGluR5 (FL) cell binding-fold over background of 37.4 fold.

Take B13: the mGluR5 (FL) cell binding-fold over background was found to be 34.2 fold.
